± gives the standard error. For some assays here: Variants at the floor of the assay were thinned out.
B1: glmS ribozyme (parent)
chain: AUAAAAGCGCCAGAACUACAGAAAUGUAGUUGACGAGGAGGAGGUUUAUCGAAUUUUCGGCGGAUGCCUCCAAA

What was measured:
Settings in all cases: with glucosamine-6-phosphate
[1] = variants of: B1; experiment: kcat; higher = faster cleavage; RNA array
How it was run: (§1)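 Barcoded glmS ribozyme variants on sequenced MiSeq chips were transcribed in situ by E. coli RNA polymerase and tracked through a hybridised Cy3 probe at 37 °C. Glucosamine-6-phosphate (40 μM to 10 mM) in HEPES/KCl/Mg(OAc)2 buffer was flowed in, and tiles were imaged over ~14 h. Signals were normalised to baseline and to non-cleaving reference variants; per-tile medians were fit to one- or two-exponential decays to give kobs. kcat and KM came from weighted Michaelis–Menten fits across concentrations.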

[2] = variants of: B1; experiment: self-cleavage kobs at 640 uM GlcN6P; higher = faster cleavage; RNA array
How it was run: as §1

[3] = variants of: B1; experiment: self-cleavage kobs at 2500 uM GlcN6P; higher = faster cleavage; RNA array
How it was run: as §1

[4] = variants of: B1; experiment: self-cleavage kobs at 10000 uM GlcN6P; higher = faster cleavage; RNA array
How it was run: as §1

[5] = variants of: B1; experiment: KM; higher = weaker cofactor use; RNA array
How it was run: as §1

[6] = variants of: B1; experiment: self-cleavage kobs at 40 uM GlcN6P; higher = faster cleavage; RNA array
How it was run: as §1

[7] = variants of: B1; experiment: self-cleavage kobs at 160 uM GlcN6P; higher = faster cleavage; RNA array
How it was run: as §1

Variant	kcat [1] [s⁻¹]	self-cleavage kobs at 640 uM GlcN6P [2] [s⁻¹]	self-cleavage kobs at 2500 uM GlcN6P [3] [s⁻¹]	self-cleavage kobs at 10000 uM GlcN6P [4] [s⁻¹]	KM [5] [µM]	self-cleavage kobs at 40 uM GlcN6P [6] [s⁻¹]	self-cleavage kobs at 160 uM GlcN6P [7] [s⁻¹]
A12G G41U	0.000763 ± 4.6e-05	4.77e-05 ± 1.4e-05	0.000147 ± 2.1e-05	0.000377 ± 4.1e-05			
A12G C16U C34G C67G	1.6e-05 ± 3.8e-06						
A12G A52G	3.09e-05 ± 1e-05		5.02e-05 ± 1.5e-05	2.49e-05 ± 8.8e-06			
A12U A42G U56A C67U	0.004 ± 0.00068	0.00156 ± 0.00046		0.00431 ± 0.0015	794 ± 200	0.000207 ± 5.3e-05	
A12U C68G	0.000191 ± 2.7e-05	8.22e-05 ± 7.3e-06	0.00016 ± 1.2e-05	0.000186 ± 1.6e-05	624 ± 230		5.38e-05 ± 6.4e-06
A12C U65A	0.00216 ± 0.00024	0.000345 ± 6.5e-05	0.000932 ± 0.00017	0.00173 ± 0.00015	2790 ± 570	3.82e-05 ± 8.1e-06	0.000134 ± 3.3e-05
A12C G60C	< 1e-05	< 1e-05		< 1e-05			
A12C G29C	0.00327 ± 0.00068	0.000508 ± 5.3e-05	0.00139 ± 0.00023	0.00271 ± 0.00022	2770 ± 820	6.03e-05 ± 6.2e-06	0.000193 ± 2.7e-05
A12C G59A	< 1e-05					< 1e-05	< 1e-05
A12C G59C	1.09e-05 ± 2.5e-06						
A12G U30C	0.000109 ± 8.8e-06	2.84e-05 ± 1.3e-05	4.54e-05 ± 7.7e-06	8.29e-05 ± 5.8e-06	3180 ± 800		
A12C U47A G60A	< 1e-05						
A12C U30A	0.00751 ± 0.0021	0.000745 ± 0.0002	0.0017 ± 0.00056	0.00447 ± 0.00074	7100 ± 2600	5.95e-05 ± 1.5e-05	0.000144 ± 3e-05
A12U A53C	0.0145 ± 0.006	0.0051 ± 0.0014	0.00439 ± 0.0022	0.0183 ± 0.0027		0.000569 ± 7.4e-05	
A12G U69C	0.000893 ± 0.00026	0.000152 ± 2e-05	0.000243 ± 5.4e-05	0.0007 ± 8.2e-05	3900 ± 1900		
A12G U69A	0.000112 ± 2.3e-05	4.87e-05 ± 2.1e-05	0.000171 ± 5.2e-05	9.85e-05 ± 1.9e-05			

Variant	kcat [1] [s⁻¹]	self-cleavage kobs at 640 uM GlcN6P [2] [s⁻¹]	self-cleavage kobs at 2500 uM GlcN6P [3] [s⁻¹]	self-cleavage kobs at 10000 uM GlcN6P [4] [s⁻¹]	KM [5] [µM]	self-cleavage kobs at 40 uM GlcN6P [6] [s⁻¹]	self-cleavage kobs at 160 uM GlcN6P [7] [s⁻¹]
A12G A15G	0.000505 ± 0.00012	7.71e-05 ± 9.2e-06	0.000155 ± 1.5e-05	0.000371 ± 3.2e-05	4550 ± 1800		2.24e-05 ± 1e-05
A12C G29U U47G	0.00126 ± 0.00043	0.000151 ± 3.1e-05	0.000697 ± 0.00018	0.000831 ± 0.00019	4280 ± 2100		
A12U C71U	0.0948 ± 0.017	0.0214 ± 0.0049	0.0611 ± 0.02	0.0826 ± 0.025	1790 ± 350	0.00207 ± 0.00018	0.00891 ± 0.0017
A12U C70U	0.00743 ± 0.0034	0.0108 ± 0.0021	0.0055 ± 0.0012			0.00232 ± 0.00023	0.0134 ± 0.0027
A12U G13A C50G C67U	0.000171 ± 2.5e-05	0.000169 ± 4.2e-05	0.000208 ± 3.6e-05	0.000124 ± 3.4e-05		0.000107 ± 2.3e-05	0.000201 ± 5.7e-05
A12C U31G	0.00416 ± 0.00048	0.00081 ± 0.00015	0.00237 ± 0.00075	0.00339 ± 0.00051	2340 ± 410	8.48e-05 ± 1.8e-05	0.000245 ± 7.1e-05
A12G G37U	< 1e-05			< 1e-05			
A12G A64C	< 1e-05					< 1e-05	
A12G A64G	0.000701 ± 0.00021	0.000128 ± 1.7e-05	0.000367 ± 5.3e-05	0.000537 ± 0.00017	2560 ± 1100		6.59e-05 ± 1.7e-05
A12G G66U	0.000245 ± 7.9e-05		3.43e-05 ± 7.2e-06	9.94e-05 ± 9.7e-06			
A12C G40C	0.000942 ± 0.00014	0.0002 ± 6.3e-05	0.000666 ± 0.00012	0.000746 ± 6.8e-05	2310 ± 620	3.01e-05 ± 9.1e-06	5.51e-05 ± 8.5e-06
A12C G40U	0.00214 ± 0.00032	0.000471 ± 5e-05	0.0012 ± 0.00012	0.00165 ± 0.00013	2490 ± 550	4.4e-05 ± 6.1e-06	0.000109 ± 1.2e-05
A12C U54G G66U	0.00175 ± 0.00085	0.000245 ± 5.3e-05	0.000495 ± 0.00014	0.00164 ± 0.00028		5.6e-05 ± 1.7e-05	8.77e-05 ± 1.3e-05
A12U A36U	2.03e-05 ± 6.7e-07				2080 ± 230		
A12G U65A	0.0002 ± 5.7e-06	2.72e-05 ± 6.7e-06	7.94e-05 ± 8.3e-06	0.000143 ± 1.2e-05	3880 ± 230		
A12G A33G U57A G59U	< 1e-05	< 1e-05	< 1e-05				
